Assay [1] concerns the target N-WASPC (autoinhibited C-terminal fragment of N-WASP) (UniProt O08816).
Assay [2] shares this target. Put plainly: ITC. (In ITC the heat of successive injections is recorded.)
Assay [3] deals with glutathione S-transferase (GST).
Assay [4] has as its target rapamycin-mediated complex of FKBP-WASP VCA-His6 and mTOR-WASP VCA-FLAG. Kind of assay: pull-down.

N-WASPC (autoinhibited C-terminal fragment of N-WASP), sequence (O08816 whole entry, the tested form may be a part): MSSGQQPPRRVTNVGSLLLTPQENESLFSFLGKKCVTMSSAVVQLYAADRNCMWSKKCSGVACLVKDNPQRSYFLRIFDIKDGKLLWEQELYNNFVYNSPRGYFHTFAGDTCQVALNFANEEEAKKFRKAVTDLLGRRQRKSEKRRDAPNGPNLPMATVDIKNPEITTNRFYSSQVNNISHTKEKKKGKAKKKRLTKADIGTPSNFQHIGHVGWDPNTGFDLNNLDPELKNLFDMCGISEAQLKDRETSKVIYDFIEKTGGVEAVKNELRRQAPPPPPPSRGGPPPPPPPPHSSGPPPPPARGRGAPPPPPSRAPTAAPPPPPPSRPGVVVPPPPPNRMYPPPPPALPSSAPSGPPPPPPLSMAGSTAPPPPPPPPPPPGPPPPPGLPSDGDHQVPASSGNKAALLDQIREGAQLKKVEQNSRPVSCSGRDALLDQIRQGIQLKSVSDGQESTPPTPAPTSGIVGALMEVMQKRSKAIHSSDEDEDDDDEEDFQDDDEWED
EspFu 2RC (identical repeats four and five), sequence (P0DJ88 whole entry, the tested form may be a part): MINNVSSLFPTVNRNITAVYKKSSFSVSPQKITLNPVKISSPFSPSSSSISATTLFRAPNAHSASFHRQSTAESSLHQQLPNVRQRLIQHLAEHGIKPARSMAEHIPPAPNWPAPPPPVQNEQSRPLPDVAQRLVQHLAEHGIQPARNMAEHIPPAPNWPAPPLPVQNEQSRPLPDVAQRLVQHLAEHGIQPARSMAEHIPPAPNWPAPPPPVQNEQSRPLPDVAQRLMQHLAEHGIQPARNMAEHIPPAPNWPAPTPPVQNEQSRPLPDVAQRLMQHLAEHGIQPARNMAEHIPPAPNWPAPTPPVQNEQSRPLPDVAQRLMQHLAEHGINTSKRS
glutathione S-transferase (GST) (natural protein), sequence (P08515 2-218): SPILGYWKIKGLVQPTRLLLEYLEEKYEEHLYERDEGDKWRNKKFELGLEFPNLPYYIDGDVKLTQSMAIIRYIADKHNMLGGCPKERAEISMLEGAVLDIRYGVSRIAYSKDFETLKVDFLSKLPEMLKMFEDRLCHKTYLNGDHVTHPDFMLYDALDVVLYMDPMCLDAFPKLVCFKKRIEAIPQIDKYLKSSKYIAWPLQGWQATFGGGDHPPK
EspFu 1R (a single repeat of EspFu, the fourth repeat), sequence (P0DJ88 whole entry, the tested form may be a part): as the sequence (P0DJ88 whole entry, the tested form may be a part) above

In general, Kd refers to the concentration at which binding is half-saturated. Higher therefore signals a looser complex. In turn, “EspFu 2RC (identical repeats four and five) (from UniProt P0DJ88 1-337) (domain or fragment)” had a fold tighter affinity than 2R in assay [1] of 3 fold. Further, the Kd in assay [2] came out at 39 nM. In turn, “EspFu 1R (a single repeat of EspFu, the fourth repeat) (from UniProt P0DJ88 1-337) (domain or fragment)” returned a Kd in assay [2] of 35 nM.

For the substance “glutathione S-transferase (GST) (natural protein)”, the dissociation constant Kd in assay [3] is below 1 nM. Take “Arp2/3 complex, endogenous in HEK293 cells (from UniProt P61158 1-418)”: the fold increase in precipitated Arp2/3 with rapamycin over no rapamycin in assay [4] was above 3 fold.

Values taken from publication PMC2680354.
